Assays:
[1] = target: T1, HuRΔIII (ΔRRMIII) (UniProt Q15717 1-243); test: EMSA; EMSA: 20 mM Tris-HCl pH 7.8, 150 mM KCl, 2 mM MgCl2, 0.1% Triton X-100, 0.5 mM DTT, heparin 5 mg/ml, BSA 1 mg/ml, 10% glycerol, on ice 15 min; 6% native PAGE, 0
[2] = target: T1, HuRΔIII (ΔRRMIII); test: displacement from Ago2 miRNPs, HuR IP and qRT-PCR; 300 nM protein, 5 mM Mg2+, 30 C, 60 min; EMSA: 20 mM Tris-HCl pH 7.8, 150 mM KCl, 2 mM MgCl2, 0.1% Triton X-100, 0.5 mM DTT, heparin 5 mg/ml, BSA 1 mg/ml, 10% glycerol, on ice 15 min; 6% native PAGE, 0

T1 sequence (Q15717 1-243, stated change not applied): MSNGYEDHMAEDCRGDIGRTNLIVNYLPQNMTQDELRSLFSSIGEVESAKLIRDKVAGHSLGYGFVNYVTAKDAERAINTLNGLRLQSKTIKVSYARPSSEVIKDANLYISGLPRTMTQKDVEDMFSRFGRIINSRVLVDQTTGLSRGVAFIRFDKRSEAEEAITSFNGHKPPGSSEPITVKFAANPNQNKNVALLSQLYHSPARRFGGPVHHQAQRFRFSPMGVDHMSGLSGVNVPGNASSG

AUUAUUUAUUAUUUAUUUAUUAUUUAUUUAUUUA (ssRNA) [TNF-alpha 3'UTR ARE RNA]
binding result [1]: binds

UGGAGUGUGACAAUGGUGUUUG (ssRNA) [miR-122 from cell-expressed Ago2 miRNPs]
binding signal [2]: ~14 fold reduction vs full-length HuR
